This is an account of results in IntAct's records for PubMed 19287395.

First the molecules themselves.
B1: Microcephalin (Homo sapiens), Q8NEM0 (parent)
chain: MAAPILKDVVAYVEVWSSNGTENYSKTFTTQLVDMGAKVSKTFNKQVTHVIFKDGYQSTWDKAQKRGVKLVSVLWVEKCRTAGAHIDESLFPAANMNEHLSSLIKKKRKCMQPKDFNFKTPENDKRFQKKFEKMAKELQRQKTNLDDDVPILLFESNGSLIYTPTIEINSRHHSAMEKRLQEMKEKRENLSPTSSQMIQQSHDNPSNSLCEAPLNISRDTLCSDEYFAGGLHSSFDDLCGNSGCGNQERKLEGSINDIKSDVCISSLVLKANNIHSSPSFTHLDKSSPQKFLSNLSKEEINLQRNIAGKVVTPDQKQAAGMSQETFEEKYRLSPTLSSTKGHLLIHSRPRSSSVKRKRVSHGSHSPPKEKCKRKRSTRRSIMPRLQLCRSEDRLQHVAGPALEALSCGESSYDDYFSPDNLKERYSENLPPESQLPSSPAQLSCRSLSKKERTSIFEMSDFSCVGKKTRTVDITNFTAKTISSPRKTGNGEGRATSSCVTSAPEEALRCCRQAGKEDACPEGNGFSYTIEDPALPKGHDDDLTPLEGSLEEMKEAVGLKSTQNKGTTSKISNSSEGEAQSEHEPCFIVDCNMETSTEEKENLPGGYSGSVKNRPTRHDVLDDSCDGFKDLIKPHEELKKSGRGKKPTRTLVMTSMPSEKQNVVIQVVDKLKGFSIAPDVCETTTHVLSGKPLRTLNVLLGIARGCWVLSYDWVLWSLELGHWISEEPFELSHHFPAAPLCRSECHLSAGPYRGTLFADQPAMFVSPASSPPVAKLCELVHLCGGRVSQVPRQASIVIGPYSGKKKATVKYLSEKWVLDSITQHKVCAPENYLLSQ
B2: TERF1-interacting nuclear factor 2 (Homo sapiens), Q9BSI4 (parent)
chain: MATPLVAGPAALRFAAAASWQVVRGRCVEHFPRVLEFLRSLRAVAPGLVRYRHHERLCMGLKAKVVVELILQGRPWAQVLKALNHHFPESGPIVRDPKATKQDLRKILEAQETFYQQVKQLSEAPVDLASKLQELEQEYGEPFLAAMEKLLFEYLCQLEKALPTPQAQQLQDVLSWMQPGVSITSSLAWRQYGVDMGWLLPECSVTDSVNLAEPMEQNPPQQQRLALHNPLPKAKPGTHLPQGPSSRTHPEPLAGRHFNLAPLGRRRVQSQWASTRGGHKERPTVMLFPFRNLGSPTQVISKPESKEEHAIYTADLAMGTRAASTGKSKSPCQTLGGRALKENPVDLPATEQKENCLDCYMDPLRLSLLPPRARKPVCPPSLCSSVITIGDLVLDSDEEENGQGEGKESLENYQKTKFDTLIPTLCEYLPPSGHGAIPVSSCDCRDSSRPL
B3: Serine/threonine-protein phosphatase 1 regulatory subunit 10 (Mus musculus), Q80W00 (parent)
chain: MGSGPIDPKELLKGLDSFLTRDGEVKSVDGISKIFSLMKEARKMVSRCTYLNIILQTRAPEVLVKFIDVGGYKLLNNWLTYSKTTNNIPLLQQILLTLQHLPLTVDHLKQNNTAKLVKQLSKSSEDEELRKLASVLVSDWMAVIRSQSSTQPAEKDKKKRKEEGKSRTTLPERPLTEVKAETRAEEAPEKKKEKPKSLRTTAPSHAKFRSTGLELDTPSLVPVKKNSSTVVVSDKYNLKPIPLKRQSATAAPGDAAPPAEKKYKPLNTAPNTTKEIKVKIIPPQPMEGLGFLDALNSAPVPGIKIKKKKKVLSPTAAKPSPFEGKTSTEQSTAKPSSPEPAPPAEPMDTDRPGTPVPPVEVPELMDAASSEPGALDAKPVDSPGDPNQLTRKGRKRKTVTWPEEGKLREYFYFELDETERVNVNKIKDFGEAAKREILSDRHAFETARRLSHDNMEEKVPWVCPRPLVLPSPLVIPGSNSQERYIQAEREKGILQELFLNKESPHEPDPEPYEPIPPKLIPLDEECAMDETPYVETLEPGGSGGSPDGAGGSKLPPVLANLMGSMGAGKSPQGPGGGGINVQEILTSIMGSPNSHPSEELLKQPDYSDKLKQMLVPHGLLGPGPVANGFPPGGPGGPKGMQHFPPGPGGPMPGPHGGPGGPVGPRLLGPPPPSRGGDPFWDGPGDPMRGGPMRGGPGPAPGPYHRGRGGRGGNEPPPPPPFRGARGGRSGGGPPNGRGGPGGGGMVGGGGHRPHEGPGGSMGSGHRSHDGPGGNMGSGHRSHDGPGGNMGGSGGHRSHEGPGHGGPHGHRPHDVPSHRGHDHRGPPPHEHRGHDGHGGGGHRGHDGGHSHGGDMSNRPVCRHFMMKGNCRYENNCAFYHPGVNGPPLP
B4: Telomeric repeat-binding factor 2 (Homo sapiens), Q15554 (parent)
chain: MAAGAGTAGPASGPGVVRDPAASQPRKRPGREGGEGARRSDTMAGGGGSSDGSGRAAGRRASRSSGRARRGRHEPGLGGPAERGAGEARLEEAVNRWVLKFYFHEALRAFRGSRYGDFRQIRDIMQALLVRPLGKEHTVSRLLRVMQCLSRIEEGENLDCSFDMEAELTPLESAINVLEMIKTEFTLTEAVVESSRKLVKEAAVIICIKNKEFEKASKILKKHMSKDPTTQKLRNDLLNIIREKNLAHPVIQNFSYETFQQKMLRFLESHLDDAEPYLLTMAKKALKSESAASSTGKEDKQPAPGPVEKPPREPARQLRNPPTTIGMMTLKAAFKTLSGAQDSEAAFAKLDQKDLVLPTQALPASPALKNKRPRKDENESSAPADGEGGSELQPKNKRMTISRLVLEEDSQSTEPSAGLNSSQEAASAPPSKPTVLNQPLPGEKNPKVPKGKWNSSNGVEEKETWVEEDELFQVQAAPDEDSTTNITKKQKWTVEESEWVKAGVQKYGEGNWAAISKNYPFVNRTAVMIKDRWRTMKRLGMN
partner: B3 chain

Variants of B1 are the subject of the first assay. The conditions noted are these: with terf2_human TERF2, Q15554.
Regarding Y330A;L332A, the “effect of a mutation on the interaction” value is “disrupting interaction”.

Variants of B2 are the subject of another assay. Conditions: with terf2_human TERF2, Q15554.
With MATPLVAGPAALRFAAAASWQVVRGRCVEHFPRVLEFLRSLRAVAPGLVRYRHHERLCMGLKAKVVVELILQGRPWAQVLKALNHHFPESGPIVRDPKATKQDLRKILEAQETFYQQVKQLSEAPVDLASKLQELEQEYGEPFLAAMEKLLFEYLCQLEKALPTPQAQQLQDVLSWMQPGVSITSSLAWRQYGVDMGWLLPECSVTDSVNLAEPMEQNPPQQQRLALHNPLPKAKPGTHLPQGPSSRTHPEPLAGRHANAAPLGRRRVQSQWASTRGGHKERPTVMLFPFRNLGSPTQVISKPESKEEHAIYTADLAMGTRAASTGKSKSPCQTLGGRALKENPVDLPATEQKENCLDCYMDPLRLSLLPPRARKPVCPPSLCSSVITIGDLVLDSDEEENGQGEGKESLENYQKTKFDTLIPTLCEYLPPSGHGAIPVSSCDCRDSSRPL [F258A;L260A], the “effect of a mutation on the interaction” value was “decreasing interaction”.

Variants of B3 are the subject of another assay. The conditions noted are these: with terf2_human TERF2, Q15554.
Y236A;L238A: the “effect of a mutation on the interaction” value is listed as “disrupting interaction”.

A further assay covers variants of B4. The conditions noted are these: with pp1ra_mouse Ppp1r10, Q80W00.
As for F162A, the “effect of a mutation on the interaction” value is on record as “disrupting interaction strength”.
